Assay results taken from US20230287089A1 (FLAGSHIP PIONEERING INNOVATIONS VI, published 2023).

Assays:
[1] = biological target: T1, SARS-CoV-2 receptor binding domain (RBD) antigen (SARS-CoV-2, UniProt P0DTC2 319-527); experiment: yeast surface display, titration of biotinylated RBD, flow cytometry
T1 construct: also called SARS-COV-2 RBD; COV-2 RBD

[2] = biological target: T1, SARS-CoV-2 receptor binding domain …

Row | Binder | Kd [1] | EC50 (read off the curve) [2]
1 | Reference (VH of Reference fused to a c-Myc epitope tag, displayed on yeast) (VHH) VHH: QVQLQESGGGLVQAGGSLRLSCAASGRTFSEYAMGWFRQAPGKEREFVATISWSGGSTYYTDSVKGRFTISRDNAKNTVYLQMNSLKPDDTAVYYCAAAGLGTVVSEWDYDYDYWGQGTQVTVSS | 6 nM | ~6 nM
2 | AB-1 (VH of AB-1 fused to a c-Myc epitope tag, displayed on yeast) (VHH) VHH: QVQLQESGGGLVQAGGSLRLSCAASGRTFSEYAMGWFRQAPGKEREFVATISWSGGSTYYTDSVKGRFTISRDNAKNTVYLQMNSLKPDDTAVYYCAAAGLGVVLSEWDYDYDYWGQGTQVTVSS | 9.3 nM | ~5 nM
3 | AB-2 (VH of AB-2 fused to a c-Myc epitope tag, displayed on yeast) (VHH) VHH: QVQLQESGGGLVQAGGSLRLSCAASGRTFSEYAMGWFRQAPGKEREFVATISYSGGSTYYTDSVKGRFTISRDNAKNTVYLQMNSLKPDDTAVYYCAAAGLGVHVSEWDYDYDYWGQGTQVTVSS | 6.6 nM | ~6 nM
